Results from article PMC6155255, “Synthetic Peptides Derived from Bovine Lactoferricin Exhibit Antimicrobial Activity against E. coli ATCC 11775, S. maltophilia ATCC 13636 and S. enteritidis ATCC 13076” (Molecules : A Journal of Synthetic Chemistry and Natural …, 2017).

Experiments:
[1] = test system: E. coli ATCC 11775; assay type: cell-based, Escherichia coli; conditions: 200 µg/well, 8 mm wells in Mueller-Hinton agar, 48 h at 37 °C
Method: (§1) These tests were carried out following the methodology reported in [36]. Briefly, an inoculum aliquot (200 µL; 2 × 10^6 CFU/mL) was placed on Mueller-Hinton (MH) Agar plates, mixed, and allowed to solidify. Wells were drilled using a punch of 8 mm, and then each hollow was filled with 100 µL of peptide (2000 µg/mL). Incubation for 48 h at 37 °C was then performed. As a non-growth control, ciprofloxacin 1.25 µg/mL was used for all tested strains. Sterile water was used as a growth control.

[2] = test system: E. coli ATCC 11775; assay type: cell-based, Escherichia coli; conditions: E. coli ATCC 11775, value in brackets (µM), 24 h at 37 °C, performed twice
Method: (§2) The MIC and MBC were determined using a microdilution assay. In brief, bacterial strains were incubated for 18 to 24 h at 37 °C in an MH broth until an optical density of 0.15 to 0.30 (620 nm) was obtained. 90 µL of Mueller-Hinton broth (MHB) were mixed with 90 µL of peptide (440 µg/mL), and using a 96-well microtiter plate peptide, serial dilution (200, 100, 50, 25, 12.5, and 6.2 µg/mL) was performed. 10 µL of inoculum (2 × 10^6 CFU/mL) was added to each well. Final volume in each well was 100 µL. Then they were incubated for 24 h at 37 °C; and the absorbance at 620 nm was measured using an Asys Expert Plus ELISA reader. To determine the MBC, an aliquot was taken from each well and was spread onto a MHA plate. After 24 h at 37 °C, the CFU/mL was determined. Each of these tests was performed twice.

[3] = test system: S. maltophilia ATCC 13636; assay type: cell-based, Stenotrophomonas maltophilia; conditions: S. maltophilia ATCC 13636, value in brackets (µM), 24 h at 37 °C, performed twice
Method: as §2

[4] = test system: S. enteritidis ATCC 13076; assay type: cell-based, Salmonella enteritidis; conditions: S. enteritidis ATCC 13076, value in brackets (µM), 24 h at 37 °C, performed twice
Method: as §2

[5] = test system: S. enteritidis ATCC 13076; assay type: cell-based, Salmonella enteritidis; conditions: 200 µg/well, 8 mm wells in Mueller-Hinton agar, 48 h at 37 °C
Method: as §1

[6] = test system: various strains of E. coli (0111, L361, ATCC 25922, wild strain, and IID-861); conditions: various strains of E. coli (0111, L361, ATCC 25922, wild strain, IID-861); cited from earlier work
Method: For BLF, a Minimum Inhibitory Concentration (MIC) and Minimum Bactericidal Concentration (MBC) larger than 200 µg/mL against the evaluated strains were found (Table 1), implying that high concentrations of the protein are required to achieve antibacterial activity. […] Furthermore, its purification is a long and expensive process.

[7] = test system: S. maltophilia ATCC 13636; assay type: cell-based, Stenotrophomonas maltophilia; conditions: 200 µg/well, 8 mm wells in Mueller-Hinton agar, 48 h at 37 °C
Method: as §1

[8] = microdilution, Mueller-Hinton broth

B1: BLF: Bovine lactoferrin, 703 amino acids, 80 kDa glycoprotein; obtained from Sigma-Aldrich (protein, UniProt P24627 20-708, looked up)
Lactotransferrin: APRKNVRWCTISQPEWFKCRRWQWRMKKLGAPSITCVRRAFALECIRAIAEKKADAVTLDGGMVFEAGRDPYKLRPVAAEIYGTKESPQTHYYAVAVVKKGSNFQLDQLQGRKSCHTGLGRSAGWIIPMGILRPYLSWTESLEPLQGAVAKFFSASCVPCIDRQAYPNLCQLCKGEGENQCACSSREPYFGYSGAFKCLQDGAGDVAFVKETTVFENLPEKADRDQYELLCLNNSRAPVDAFKECHLAQVPSHAVVARSVDGKEDLIWKLLSKAQEKFGKNKSRSFQLFGSPPGQRDLLFKDSALGFLRIPSKVDSALYLGSRYLTTLKNLRETAEEVKARYTRVVWCAVGPEEQKKCQQWSQQSGQNVTCATASTTDDCIVLVLKGEADALNLDGGYIYTAGKCGLVPVLAENRKSSKHSSLDCVLRPTEGYLAVAVVKKANEGLTWNSLKDKKSCHTAVDRTAGWNIPMGLIVNQTGSCAFDEFFSQSCAPGADPKSRLCALCAGDDQGLDKCVPNSKEKYYGYTGAFRCLAEDVGDVAFVKNDTVWENTNGESTADWAKNLNREDFRLLCLDGTRKPVTEAQSCHLAVAPNHAVVSRSDRAAHVKQVLLHQQALFGKNGKNCPDKFCLFKSETKNLLFNDNTECLAKLGGRPTYEEYLGTEYVTAIANLKKCSTSPLLEACAFLTR
~ 9 mm: inhibition halo [1] | inhibition halo [5] | inhibition halo [7]
> 2.5 µM: MBC ([2]; aliquot spread on MHA plate) | MIC [2, 8] | MBC ([3]; aliquot spread on MHA plate) | MIC [3, 8] | MBC ([4]; aliquot spread on MHA plate) | MIC [4, 8]
greater than 200 µg/mL: BLF concentration required for exhibiting an antibacterial effect [6]
